Measurements taken from US20170022281A1 (AbbVie / Abbott, published 2017).
Changes are numbered by the printed parent chain.

B1: Ab53 (antibody, human IgG1, kappa, V domains shown)
VH: EVQLVQSGAEVKKPGSSVKVSCKASGYTFTSYWIHWVRQAPGQGLEWIGEIDPSDSYTNYNQKFKGRVTITVDKSTSTAYMELSSLRSEDTAVYYCARSFFTNWFAYWGQGTLVTVSS
VL: DVVMTQTPLSLSVTPGQPASISCRSSQSLVHSNGNTYLHWYLQKPGQSPQLLIYKVSNRFSGVPDRFSGSGSGTDFTLKISRVEAEDVGVYFCSQSTHVPFTFGGGTKVEIKR
notes: humanized from Ab7 (back mutations on Ab36); G1; also called Ab4 HC.1b.2 and Ab4 LC.1a
B2: Ab44 (antibody, human IgG1, kappa, V domains shown)
VH: EVQLVQSGAEVKKPGASVKVSCKASGYTFTDYNIHWVRQAPGQGLEWMGYIYPNNDGTGYNQKFKSRVTMTTDTSTSTAYMELRSLRSDDTAVYYCARGDGNYVGDMDYWGQGTTVTVSS
VL: DIQMTQSPSSLSASVGDRVTITCRASENIYSYLAWYQQKPGKAPKLLIYNAKTLAEGVPSRFSGSGSGTDFTLTISSLQPEDFATYYCQHHYATPFTFGQGTKLEIKR
notes: humanized from Ab8; G1; also called Ab3 HC.1 and Ab3 LC.1
B3: Ab51 (antibody, human IgG1, kappa, V domains shown)
VH: B2 VH with M48I, N61A, F64L, K65Q, S66G, T72V
VL: B2 VL with A43P, I48V
notes: humanized from Ab8; G1; also called Ab3 HC.1b and Ab3 LC.1a
B4: Ab50 (antibody, human IgG1, kappa, V domains shown)
VH: B2 VH with M48I, N61A, F64L, K65Q, S66G, T72V
VL: B2 VL
notes: humanized from Ab8; G1; also called Ab3 HC.1b and Ab3 LC.1
B5: Ab52 (antibody, human IgG1, kappa, V domains shown)
VH: B2 VH with M48I, N61A, F64L, K65Q, S66G, T72V
VL: B2 VL with I48V
notes: humanized from Ab8; G1; also called Ab3 HC.1b and Ab3 LC.1b
B6: Ab42 (antibody, human IgG1, kappa, V domains shown)
VH: B1 VH with Y27G, N61A, K65Q
VL: B1 VL
B7: Ab22 (antibody, human IgG1, kappa, V domains shown)
VH: EVQLVQSGAEVKKPGSSVKVSCKASGGTFTTYWMHWVRQAPGQGLEWIGEIDPSDSYSNYAQKFQGRVTITVDKSTSTAYMELSSLRSEDTAVYYCARNGGLGPAWFSYWGQGTLVTVSS
VL: DIQMTQSPSSVSASVGDRVTITCKASQYVGTAVAWYQQKPGKAPKLLIYSASNRYTGVPSRFSGSGSGTDFTLTISSLQPEDFATYYCQQYSSYPWTFGGGTKVEIKR
B8: Ab25 (antibody, human IgG1, kappa, V domains shown)
VH: B7 VH
VL: EIVMTQSPATLSVSPGERATLSCKASQYVGTAVAWYQQKPGQSPRLLIYSASNRYTGVPARFSDSGSGTEFTLTISSLQSEDFAVYFCQQYSSYPWTFGGGTKVEIKR
B9: Ab23 (antibody, human IgG1, kappa, V domains shown)
VH: B7 VH
VL: B7 VL with A43S, G64D, Y87F
B10: Ab24 (antibody, human IgG1, kappa, V domains shown)
VH: B7 VH
VL: B8 VL with S43A, V58I, D64G, F87Y
B11: Ab32 (antibody, human IgG1, kappa)
heavy: not shown
light: DIVMTQTPLSLSVTPGQPASISCRSSQRLVHSNGNTYLHWYLQKPGQSPQLLIYKVSNRFSGVPDRFSGSGSGTDFTLKISRVEAEDVGVYYCSQSTHVPWTFGGGTKVEIKRTVAAPSVFIFPPSDEQLKSGTASVVCLLNNFYPREAKVQWKVDNALQSGNSQESVTEQDSKDSTYSLSSTLTLSKADYEKHKVYACEVTHQGLSSPVTKSFNRGEC
B12: Ab41 (antibody, human IgG1, kappa)
heavy: not shown
light: B11 light with R28S, W101F
B13: Ab34 (antibody, human IgG1, kappa)
heavy: not shown
light: B11 light with I2V
B14: Ab43 (antibody, human IgG1, kappa)
heavy: not shown
light: B11 light with I2V, R28S, W101F
B15: Ab33 (antibody, human IgG1, kappa, V domains shown)
VH: EVQLVQSGAEVKKPGSSVKVSCKASGGTFTSFWMHWVRQAPGQGLEWIGVIDPSDTYTNYAQKFQGRVTITVDESTSTAYMELSSLRSEDTAVYYCARGDYSNWFTYWGQGTLVTVSS
VL: B1 VL with S28R, F101W
B16: chAb9 (antibody, human IgG1, kappa, V domains shown)
VH: EVQLQQSGPELVRPGASVKISCKASGYSFTDYNMHWVKQSHGKSLEWIGYIYPYNGGAGYNQKFKSKATMNVGISSSTAYMELRSLTSEDSAVYYCARGDGNYVGDMDYWGQGTSVTVSS
VL: DIQMTQSPASLSASVGETVTITCRASENIYSYLAWYQQKQGKSPQLLVYNAKTLAEGVPSRFSGSGSGTQFSLKINSLQPEDFGSYYCQHHSGTPFTFGSGTKLEIKT

Target: T1, human PRLR (Biacore antigen) (human, UniProt P16471 25-234, limits assumed)
T1 construct: The construct injected over captured antibody is not described (a soluble form is likely); also called huPRLR
T1 sequence: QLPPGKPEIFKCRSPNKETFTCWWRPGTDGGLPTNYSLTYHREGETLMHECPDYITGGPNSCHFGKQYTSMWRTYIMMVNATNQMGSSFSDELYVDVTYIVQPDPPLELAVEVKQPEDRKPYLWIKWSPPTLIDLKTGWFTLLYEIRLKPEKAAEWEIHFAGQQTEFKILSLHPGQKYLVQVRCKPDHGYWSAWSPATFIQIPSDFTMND
Experiment: SPR Biacore
How it was run: (§1)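 Association rate, dissociation rate and dissociation constant were measured by surface plasmon resonance on a Biacore instrument. PRLR antigen was tested at 600 nM, 66.67 nM and 7.41 nM, a 3-point, 9-fold dilution series. Constants came from a 1:1 binding model fit (local Rmax, mass-transport term included) in Biacore T200 Evaluation Software.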

| Binder | Kd [nM] | koff [s⁻¹] | kon [M⁻¹ s⁻¹] |
| --- | --- | --- | --- |
| B1 | 8.5 | 0.001 | 120000 |

Target: T2, cyno PRLR (Biacore antigen) (cyno, UniProt A0A2K5WXK1 25-234)
T2 construct: also called cyPRLR
T2 sequence: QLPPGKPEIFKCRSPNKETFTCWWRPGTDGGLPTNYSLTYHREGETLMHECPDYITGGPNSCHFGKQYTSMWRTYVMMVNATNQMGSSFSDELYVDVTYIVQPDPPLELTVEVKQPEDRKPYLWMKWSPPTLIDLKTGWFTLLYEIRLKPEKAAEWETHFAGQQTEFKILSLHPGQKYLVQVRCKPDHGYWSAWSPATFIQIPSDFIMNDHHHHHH
Experiment: SPR Biacore
How it was run: as §1

| Binder | Kd [nM] | koff [s⁻¹] | kon [M⁻¹ s⁻¹] |
| --- | --- | --- | --- |
| B1 | 7.8 | 0.00089 | 110000 |

Target: T3, cyno PRLR ECD-his6 protein (cyno)
T3 chain: T2 sequence
Experiment: ELISA on ECD
Experimental: (§2) Plates were blocked for 1 hour with Superblock (Pierce) and washed (3×) with wash buffer (lx PBS (pH 7.4), 0.05% Tween 20). ECD proteins were bound to the appropriate antibody (1 hour) in binding buffer (wash buffer plus 10% Superblock), washed (3×, wash buffer), and then incubated with serial dilutions of antibodies (1 hour) in binding buffer. After washing (3×, wash buffer), secondary antibodies conjugated to HRP were bound (1 hour) in binding buffer, washed (3×, wash buffer), and incubated with TMB substrate (Pierce) to develop signal for 3-5 minutes, stopped with 2N H₂SO₄ and scanned at […]. Curves were fit with GraphPad 5 (Prizm) and EC50's were determined with curve fitting function of GraphPad 5.

| Binder | EC50 [nM] |
| --- | --- |
| B2 | 0.0945 |

Target: T4, human PRLR ECD-Fc fusion protein (human, UniProt P16471 25-233)
T4 construct: not shown: Fc region (captured by goat anti-human Fc)
T4 sequence: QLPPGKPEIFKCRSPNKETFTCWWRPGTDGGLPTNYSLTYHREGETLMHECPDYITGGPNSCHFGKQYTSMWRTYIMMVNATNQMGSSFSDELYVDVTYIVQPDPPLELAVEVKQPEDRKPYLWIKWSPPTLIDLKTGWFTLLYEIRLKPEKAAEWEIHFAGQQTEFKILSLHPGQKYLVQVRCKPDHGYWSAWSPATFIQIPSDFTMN
Experiment: ELISA on ECD
Experimental: as §2

| Binder | EC50 [nM] |
| --- | --- |
| B2 | 0.0435 |
| B3 | 0.287 |
| B4 | 0.109 |
| B5 | 0.0913 |

Target: T5, mouse PRLR on Baf3-mPRLR cells (mouse, UniProt Q08501 20-608)
T5 sequence (looked up): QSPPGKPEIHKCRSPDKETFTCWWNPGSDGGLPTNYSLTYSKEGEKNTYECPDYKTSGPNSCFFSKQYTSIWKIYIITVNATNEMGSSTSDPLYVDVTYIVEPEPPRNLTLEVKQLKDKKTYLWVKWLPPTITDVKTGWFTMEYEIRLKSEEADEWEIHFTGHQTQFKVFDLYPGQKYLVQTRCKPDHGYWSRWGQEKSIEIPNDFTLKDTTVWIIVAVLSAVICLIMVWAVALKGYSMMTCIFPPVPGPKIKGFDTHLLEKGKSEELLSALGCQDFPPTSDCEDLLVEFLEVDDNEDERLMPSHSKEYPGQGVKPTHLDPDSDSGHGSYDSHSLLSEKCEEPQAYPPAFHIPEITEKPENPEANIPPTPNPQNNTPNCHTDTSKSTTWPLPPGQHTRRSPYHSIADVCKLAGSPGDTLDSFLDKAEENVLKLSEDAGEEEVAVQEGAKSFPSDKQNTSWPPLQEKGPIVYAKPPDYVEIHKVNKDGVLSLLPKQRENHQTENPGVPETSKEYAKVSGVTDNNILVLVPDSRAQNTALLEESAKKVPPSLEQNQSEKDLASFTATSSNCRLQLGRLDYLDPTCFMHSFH
Experiment: cell-based or functional assay

| Binder | Baf3-mPRLR proliferation IC50 [µg/mL] |
| --- | --- |
| B2 | > 30 |
| B3 | > 30 |
| B4 | > 30 |
| B5 | > 30 |

Target: T6, human PRLR on cells (human, UniProt P16471 25-622)
T6 sequence: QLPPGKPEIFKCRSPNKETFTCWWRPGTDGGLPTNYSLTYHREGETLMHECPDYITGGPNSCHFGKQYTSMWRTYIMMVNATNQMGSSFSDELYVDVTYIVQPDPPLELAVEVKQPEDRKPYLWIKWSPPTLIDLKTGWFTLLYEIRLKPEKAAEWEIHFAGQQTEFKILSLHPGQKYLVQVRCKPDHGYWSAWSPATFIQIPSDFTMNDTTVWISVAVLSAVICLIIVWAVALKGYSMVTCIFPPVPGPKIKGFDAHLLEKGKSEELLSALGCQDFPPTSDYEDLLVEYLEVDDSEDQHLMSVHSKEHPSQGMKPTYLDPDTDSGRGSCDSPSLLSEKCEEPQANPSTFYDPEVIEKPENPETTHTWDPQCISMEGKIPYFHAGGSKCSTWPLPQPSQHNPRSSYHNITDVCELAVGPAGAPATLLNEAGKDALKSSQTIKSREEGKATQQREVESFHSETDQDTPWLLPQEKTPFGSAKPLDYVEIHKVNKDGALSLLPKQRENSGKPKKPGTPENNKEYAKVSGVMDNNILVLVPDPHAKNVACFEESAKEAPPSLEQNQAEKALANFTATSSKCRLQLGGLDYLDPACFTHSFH
Experiment: cell-based or functional assay

| Binder | Baf3-hPRLR proliferation IC50 [µg/mL] |
| --- | --- |
| B1 | 1.03 |
| B6 | 4.76 |
| B7 | > 30 |
| B8 | > 30 |
| B9 | > 30 |
| B10 | > 30 |
| B2 | 0.3 |
| B3 | 0.55 |
| B4 | 0.51 |
| B5 | 0.51 |
| B11 | > 30 |
| B12 | 4.38 |
| B13 | > 30 |
| B14 | 6.75 |
| B15 | > 30 |
| B16 | 0.2 |

Target: cyno PRLR on Baf3-cyPRLR cells (cyno)
Experiment: cell-based or functional assay

| Binder | Baf3-cyPRLR proliferation IC50 [µg/mL] |
| --- | --- |
| B2 | 1.76 |
| B3 | 100 |
| B4 | 41.6 |
| B5 | 305 |
| B16 | 10.4 |
